Columns and labels:
Test in all cases: ELISA on coated B7 family protein
[1] = biological target: T1, Human B7-1/CD80 protein, Fc tag (Acro, B71-H5259) (human, UniProt P33681 35-242)
T1 construct: Bought
T1 sequence (looked up): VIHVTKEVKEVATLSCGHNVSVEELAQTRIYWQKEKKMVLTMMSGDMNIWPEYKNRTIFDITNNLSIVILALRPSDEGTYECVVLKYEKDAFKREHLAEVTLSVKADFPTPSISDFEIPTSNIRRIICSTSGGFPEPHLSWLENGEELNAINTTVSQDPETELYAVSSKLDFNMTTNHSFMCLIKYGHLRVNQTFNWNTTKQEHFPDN
Experimental: (§1) B7 family proteins (see Table 7 for details) were respectively diluted to […] with PBS, added into a 96-well plate (Corning, #9018) at 100 μl/well, and incubated at 4° C. overnight. After the liquid was discarded, the plate was washed 3 times with a PBST buffer (pH 7.4, containing 0.05% tween-20), 250 μl of blocking solution containing 2% BSA was added, and the plate was incubated for 1 hour at 37° C. The blocking solution was discarded, the plate was washed 3 times with PBST buffer (pH 7.4, containing 0.05% Tween-20), the antigen-binding protein to be tested was diluted to 2 concentrations of 10 nM and 1 nM, 100 μl of the diluted antigen-binding protein was added to each well, and the plate was incubated for 1 hour at 37° C., with the isotype antibody as the control. After the plate was washed 3 times with PBST buffer (pH 7.4, containing 0.05% Tween-20), goat anti-human HRP secondary antibody (Invitrogen, #A18805) diluted 5000 times was added, and the plate was incubated at 37° C. for 1 hour in the dark. After the plate was washed 3 times with PBST buffer (pH 7.4, containing 0.05% tween-20), TMB (Biopanda, #TMB-S-003) was added at 100 μl/well, and the plate was placed at room temperature for about 30 minutes in the dark; and a stop solution (BBI life sciences, #E661006-0200) was added to each well at 50 μl/well to stop the reaction, and the absorbance at 450 nm (OD450) was determined in a microplate reader (PerkinElemer, #Enspire).

[2] = biological target: T2, Human B7-2/CD86 protein, Fc tag (Acro, CD6-H5257) (human, UniProt P42081 26-247)
T2 construct: Bought
T2 sequence (looked up): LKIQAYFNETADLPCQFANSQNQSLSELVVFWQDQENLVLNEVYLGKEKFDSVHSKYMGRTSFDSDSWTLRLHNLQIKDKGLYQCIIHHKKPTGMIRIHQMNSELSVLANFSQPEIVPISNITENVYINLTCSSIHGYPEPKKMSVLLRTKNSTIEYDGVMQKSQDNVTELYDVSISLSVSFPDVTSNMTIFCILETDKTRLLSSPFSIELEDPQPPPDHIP
Experimental: as §1

[3] = biological target: T3, Human B7-DC/PD-L2/CD273 protein, recombinant (Fc tag) (Sino Biological, H10292-H02H) (human, UniProt Q9BQ51 20-219)
T3 construct: Bought
T3 sequence (looked up): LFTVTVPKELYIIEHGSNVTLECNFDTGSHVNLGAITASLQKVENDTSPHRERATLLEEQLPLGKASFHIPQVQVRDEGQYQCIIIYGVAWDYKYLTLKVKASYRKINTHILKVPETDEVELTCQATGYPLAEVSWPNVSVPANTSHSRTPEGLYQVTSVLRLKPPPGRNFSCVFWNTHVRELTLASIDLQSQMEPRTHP
Experimental: as §1

[4] = biological target: T4, CD275/ICOS ligand protein, human, recombinant (Fc tag) (Sino Biological, 11559-H02H) (human, UniProt O75144 19-258)
T4 construct: Bought; also called B7H2
T4 sequence (looked up): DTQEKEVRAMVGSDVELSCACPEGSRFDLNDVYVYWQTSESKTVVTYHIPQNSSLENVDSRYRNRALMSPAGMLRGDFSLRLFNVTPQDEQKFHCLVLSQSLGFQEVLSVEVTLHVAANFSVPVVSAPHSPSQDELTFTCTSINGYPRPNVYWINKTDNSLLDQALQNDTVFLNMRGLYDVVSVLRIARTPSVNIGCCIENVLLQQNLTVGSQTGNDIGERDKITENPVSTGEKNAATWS
Experimental: as §1

[5] = biological target: T5, Recombinant human B7H4 Fc chimera (R&D, 8870-B7-050) (human, UniProt Q7Z7D3 29-258)
T5 construct: Bought
T5 sequence (looked up): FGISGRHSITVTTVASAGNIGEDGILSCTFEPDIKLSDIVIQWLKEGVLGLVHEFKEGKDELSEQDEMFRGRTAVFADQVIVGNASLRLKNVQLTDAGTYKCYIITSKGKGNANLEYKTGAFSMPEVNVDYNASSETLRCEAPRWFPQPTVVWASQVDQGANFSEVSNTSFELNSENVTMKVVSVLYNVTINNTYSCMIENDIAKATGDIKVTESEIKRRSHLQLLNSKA
Experimental: as §1

[6] = biological target: T6, Recombinant human VISTA/B7H5/PD-1H Fc chimera (R&D, 7126-B7-050) (human, UniProt Q9H7M9 33-194)
T6 construct: Bought
Experimental: as §1

[7] = biological target: T7, B7-H6 /NCR3LG1 protein, human, recombinant (Fc tag) (Sino Biological, 16140-H02H) (human, UniProt Q68D85 25-262)
T7 construct: Bought
T7 sequence (looked up): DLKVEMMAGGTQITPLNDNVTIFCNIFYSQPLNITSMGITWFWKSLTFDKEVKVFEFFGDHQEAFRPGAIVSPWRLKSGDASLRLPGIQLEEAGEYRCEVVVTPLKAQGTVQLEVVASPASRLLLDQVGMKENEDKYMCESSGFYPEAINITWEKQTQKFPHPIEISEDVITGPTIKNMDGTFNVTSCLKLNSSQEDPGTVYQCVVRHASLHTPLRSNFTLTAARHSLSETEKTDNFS
Experimental: as §1

Measured: binding result

B1: PR004263 (antibody, human IgG1, kappa, L234A L235A)
heavy: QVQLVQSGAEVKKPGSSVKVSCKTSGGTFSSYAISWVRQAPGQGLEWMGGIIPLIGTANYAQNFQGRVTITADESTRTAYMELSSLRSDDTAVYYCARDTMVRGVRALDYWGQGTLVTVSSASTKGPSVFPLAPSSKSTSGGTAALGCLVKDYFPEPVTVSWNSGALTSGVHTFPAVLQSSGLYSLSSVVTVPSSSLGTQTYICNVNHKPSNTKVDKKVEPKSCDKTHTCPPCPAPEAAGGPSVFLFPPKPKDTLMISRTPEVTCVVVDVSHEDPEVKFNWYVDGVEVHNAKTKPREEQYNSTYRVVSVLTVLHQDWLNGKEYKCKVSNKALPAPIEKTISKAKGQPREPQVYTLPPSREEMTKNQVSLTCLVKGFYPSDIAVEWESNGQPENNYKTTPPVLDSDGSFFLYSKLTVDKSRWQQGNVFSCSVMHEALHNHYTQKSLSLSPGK
light: DIQLTQSPSFLSASVGDRVTITCRASQGISSYFAWYQQKPGKAPKLLIYAASTLQSGVPSRFSGSGSGTEFTLTISSLQPEDFATYYCQHLNRYPWTFGQGTKVEIKRTVAAPSVFIFPPSDEQLKSGTASVVCLLNNFYPREAKVQWKVDNALQSGNSQESVTEQDSKDSTYSLSSTLTLSKADYEKHKVYACEVTHQGLSSPVTKSFNRGEC
notes: Variant of PR003264; Human IgG1 with LALA mutation in Fc
no binding (tested: 10 nM): all assays above

B2: PR004260 (antibody, human IgG1, kappa, L234A L235A)
heavy: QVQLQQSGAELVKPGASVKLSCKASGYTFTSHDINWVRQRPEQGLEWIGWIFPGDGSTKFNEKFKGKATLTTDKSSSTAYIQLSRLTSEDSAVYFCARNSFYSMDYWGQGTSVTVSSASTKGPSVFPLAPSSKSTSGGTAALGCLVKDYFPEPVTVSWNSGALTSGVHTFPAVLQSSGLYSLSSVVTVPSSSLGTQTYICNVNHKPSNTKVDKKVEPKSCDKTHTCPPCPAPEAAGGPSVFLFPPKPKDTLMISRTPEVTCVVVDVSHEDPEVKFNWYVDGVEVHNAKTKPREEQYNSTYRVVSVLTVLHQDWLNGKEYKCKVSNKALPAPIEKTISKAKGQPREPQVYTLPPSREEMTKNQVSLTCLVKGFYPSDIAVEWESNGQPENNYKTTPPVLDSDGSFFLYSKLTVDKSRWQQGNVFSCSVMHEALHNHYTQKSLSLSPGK
light: DIVMSQSPSSLAVSAGEKVTMSCKSSQSLLNSRTRKNQLAWYQQKPGQSPKLLIYWASTRESGVPDRFTGSGSGTDFTLTISSVQAEDLAVYYCKQSYNLRTFGGGTKLEIKRTVAAPSVFIFPPSDEQLKSGTASVVCLLNNFYPREAKVQWKVDNALQSGNSQESVTEQDSKDSTYSLSSTLTLSKADYEKHKVYACEVTHQGLSSPVTKSFNRGEC
notes: Variant of PR003181; Human IgG1 with LALA mutation in Fc
no binding (tested: 10 nM): all assays above

From US20250136696A1 (HARBOUR BIOMED SHANGHAI, published 2025)
